Key:
[1] = target: LFA-1 high affinity open mutant K287C/K294C (αL K287C/K294C with β2) (human) (UniProt P05107); experiment: flow cytometry, K562; normalised to TS2/4
[2] = target: LFA-1 low affinity closed mutant L289C/K294C (αL L289C/K294C with β2) (human) (UniProt P05107); experiment: flow cytometry, K562; normalised to TS2/4
[3] = target: LFA-1 high affinity open mutant K287C/K294C (αL K287C/K294C with β2) (human) (UniProt P05107); experiment: flow cytometry, 293T; normalised to TS2/4
[4] = target: LFA-1 low affinity closed mutant L289C/K294C (αL L289C/K294C with β2) (human) (UniProt P05107); experiment: flow cytometry, 293T; normalised to TS2/4
[5] = target: LFA-1 single cysteine substitution mutant L289C (human) (UniProt P05107); experiment: flow cytometry, 293T; normalised to TS2/4
[6] = target: LFA-1 single cysteine substitution mutant K287C (human) (UniProt P05107); experiment: flow cytometry, 293T; normalised to TS2/4
[7] = target: LFA-1 single cysteine substitution mutant K294C (human) (UniProt P05107); experiment: flow cytometry, 293T; normalised to TS2/4
[8] = target: wild-type LFA-1 (αL/β2 complex) (human) (UniProt P05107); experiment: K562 (+CBRLFA-1/2) cell adhesion to immobilized ICAM-1
[9] = target: LFA-1 high affinity open mutant K287C/K294C (αL K287C/K294C with β2) (human) (UniProt P05107); experiment: K562 cell adhesion to immobilized ICAM-1
[10] = target: LFA-1 high affinity open mutant K287C/K294C (αL K287C/K294C with β2) (human) (UniProt P05107); experiment: 293T cell adhesion to immobilized ICAM-1
[11] = target: wild-type LFA-1 (αL/β2 complex) (human) (UniProt P05107); experiment: 293T cell adhesion to immobilized ICAM-1
[12] = target: wild-type LFA-1 (αL/β2 complex) (human) (UniProt P05107); experiment: cell adhesion to immobilized ICAM-1
[13] = target: iC3b coated on plastic (UniProt P01024); experiment: cell adhesion to immobilized iC3b; -DTT, +activation
[14] = target: iC3b coated on plastic (UniProt P01024); experiment: cell adhesion to immobilized iC3b; -DTT, -activation
[15] = target: ICAM-1 purified from human tonsil, immobilized (human) (UniProt P05362); experiment: 293T K287C/K294C LFA-1 cell adhesion to immobilized ICAM-1
[16] = target: ICAM-1 purified from human tonsil, immobilized (human) (UniProt P05362); experiment: 293T wild-type LFA-1 cell adhesion to immobilized ICAM-1
[17] = target: LFA-1 high affinity open mutant K287C/K294C (αL K287C/K294C with β2) (human) (UniProt P05107); experiment: flow cytometry, K562; normalised to TS1/22
[18] = target: LFA-1 high affinity open mutant K287C/K294C (αL K287C/K294C with β2) (human) (UniProt P05107); experiment: cell adhesion to immobilized ICAM-1
[19] = target: iC3b coated on plastic (UniProt P01024); experiment: cell adhesion to immobilized iC3b; +DTT, +activation
[20] = target: LFA-1 high affinity open mutant K287C/K294C (αL K287C/K294C with β2) (human) (UniProt P05107); experiment: flow cytometry on transfectants
[21] = target: isolated mutant K287C/K294C αL I-domain (V130-A338) expressed on K562 cells by the PDGFR transmembrane domain (human) (UniProt P20701); experiment: flow cytometry
isolated mutant K287C/K294C αL I-domain (V130-A338) expressed on K562 cells by the PDGFR transmembrane domain (human), sequence (P20701 155-363 K312C/K319C limits assumed, form in doubt): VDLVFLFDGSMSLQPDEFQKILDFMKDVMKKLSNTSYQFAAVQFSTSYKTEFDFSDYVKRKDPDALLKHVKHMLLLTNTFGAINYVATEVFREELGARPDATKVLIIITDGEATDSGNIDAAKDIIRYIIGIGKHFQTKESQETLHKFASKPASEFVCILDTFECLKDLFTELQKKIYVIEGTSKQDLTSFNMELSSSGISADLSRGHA

ICAM-1 purified from human tonsil, immobilized (human), sequence (P05362 28-532 limits assumed, form in doubt): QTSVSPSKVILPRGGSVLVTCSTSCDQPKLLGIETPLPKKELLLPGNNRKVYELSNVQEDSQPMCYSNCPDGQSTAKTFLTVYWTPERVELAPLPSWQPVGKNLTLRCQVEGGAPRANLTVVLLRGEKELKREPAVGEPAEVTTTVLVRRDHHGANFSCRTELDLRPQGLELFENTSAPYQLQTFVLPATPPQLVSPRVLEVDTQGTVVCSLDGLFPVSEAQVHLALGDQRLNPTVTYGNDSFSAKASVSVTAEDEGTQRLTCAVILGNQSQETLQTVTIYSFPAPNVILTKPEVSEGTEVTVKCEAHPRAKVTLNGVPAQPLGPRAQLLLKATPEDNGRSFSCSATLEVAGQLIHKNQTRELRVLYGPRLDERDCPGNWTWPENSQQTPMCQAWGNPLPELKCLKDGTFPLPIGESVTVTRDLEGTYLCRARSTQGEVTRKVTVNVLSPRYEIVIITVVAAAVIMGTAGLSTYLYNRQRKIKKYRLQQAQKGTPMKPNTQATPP

Row | Substance | % wild-type binding [1] [%] | % wild-type binding [2] [%] | % wild-type binding [3] [%] | % wild-type binding [4] [%] | % wild-type binding [5] [%] | % wild-type binding [6] [%] | % wild-type binding [7] [%] | % inhibition [8] [%] | % inhibition [9] [%] | % inhibition [10] [%] | % inhibition [11] [%] | % inhibition [12] [%] | also measured
1 | monoclonal antibody F8.8 | 102 | 93.9 | 93.7 | 83.6 | 99.6 | 95.9 | 95.5 | 97.6 | 98.2 | 91.9 | 94.5 | – | –
2 | monoclonal antibody 6.5E | – | – | – | – | – | – | – | 98.4 | 5.79 | – | – | > 90 | –
3 | Mac-1 (αMβ2) mutant D294C/T307C (from UniProt P05107 23-769) (receptor) | – | – | – | – | – | – | – | – | – | – | – | – | percent of binding by activated wild type transfectant [13]: 5 to 25%; percent of binding by activated wild type transfectant [14]: 0 to 5%
4 | monoclonal antibody May.035 | 92.6 | 101 | 92.6 | 82.1 | 95.4 | 95.8 | 106 | 95.8 | 93.3 | 97.4 | 96.2 | – | –
5 | monoclonal antibody RR1/1 | – | – | – | – | – | – | – | – | – | – | – | – | % inhibition [15]: 97.9%; % inhibition [16]: 96%
6 | mouse anti-human αL (CD11a) monoclonal antibody TS1/22 | 93.1 | 110 | 95.8 | 91 | 96.2 | 103 | 92.2 | 96.9 | 93.6 | 95.1 | 95.8 | – | –
7 | monoclonal antibody CBRLFA-1/9 | – | – | – | – | – | – | – | 97.8 | 3.6 | – | – | – | % wild-type binding [17]: 84.7%
8 | mouse anti-human αL (CD11a) monoclonal antibody TS1/11 | 96 | 105 | 94.4 | 93.7 | – | – | – | 96.5 | 41.3 | 45.2 | 94.1 | > 90 | % inhibition [18]: 40 to 60%
9 | monoclonal antibody May.017 | – | – | – | – | – | – | – | 97.8 | 2.98 | – | – | > 90 | –
10 | monoclonal antibody CLBLFA-1/1 | 96.5 | 100 | – | – | – | – | – | 94.6 | 6.69 | – | – | > 90 | –
11 | Mac-1 (αMβ2) mutant F297C/A304C (from UniProt P05107 23-769) (receptor) | – | – | – | – | – | – | – | – | – | – | – | – | percent of binding by activated wild type transfectant [14]: 0 to 5%
12 | mouse anti-human αL (CD11a) monoclonal antibody TS1/12 | 87.3 | 106 | 88.7 | 102 | 104 | 99.3 | 93.7 | 97.5 | 63.7 | 49 | 95.7 | > 90 | % inhibition [18]: 40 to 60%
13 | anti-β2 (CD18) monoclonal antibody TS1/18 | 97.4 | 106 | 99.8 | 95.7 | 87.3 | 87.9 | 108 | 98.5 | 5.9 | – | – | > 90 | –
14 | anti-β2 (CD18) monoclonal antibody CBRLFA-1/7 | 95.2 | 97.2 | 95.3 | 91.7 | – | – | – | 5.04 | 5.77 | – | – | – | –
15 | mouse anti-human αL (CD11a) monoclonal antibody TS2/6 | 89.2 | 95.9 | 84.9 | 78.6 | 88.2 | 91.4 | 91.7 | 91.8 | 88.1 | 79.1 | 96.8 | – | –
16 | Mac-1 (αMβ2) mutant Q163C/R313C (locked closed) (from UniProt P05107 23-769) (receptor) | – | – | – | – | – | – | – | – | – | – | – | – | percent of binding by activated wild type transfectant [13]: 0 to 5%; percent of binding by activated wild type transfectant [14]: 0 to 5%; percent of binding by activated wild type transfectant [19]: 50 to 75%
17 | monoclonal antibody S6F1 | 97.4 | 85.7 | 89.4 | 95.3 | 86.4 | 98.3 | 92.3 | 6.19 | 9.7 | – | – | – | –
18 | Mac-1 (αMβ2) mutant Q298C/N301C (from UniProt P05107 23-769) (receptor) | – | – | – | – | – | – | – | – | – | – | – | – | percent of binding by activated wild type transfectant [13]: 5 to 25%; percent of binding by activated wild type transfectant [14]: 0 to 5%
19 | mAb YFC51 (antibody) | 101 | 111 | 103 | 95.1 | – | – | – | 98.4 | 0.08 | – | – | > 90 | –
20 | mouse anti-human αL (CD11a) monoclonal antibody TS2/4 | – | – | – | – | – | – | – | 6.99 | 2.82 | – | – | – | –
21 | monoclonal antibody BL5 | 92.4 | 97.6 | 92.4 | 85.8 | 92.4 | 93.3 | 88.3 | 97.5 | 90.7 | 91.1 | 97 | – | –
22 | mouse anti-human αL (CD11a) monoclonal antibody TS2/14 | 95.4 | 103 | 85.5 | 83.3 | 100 | 103 | 103 | 96.2 | 8.55 | 2.95 | 94.5 | > 90 | –
23 | monoclonal antibody 25-3-1 | 88.5 | 85.7 | 93.1 | 90.9 | – | – | – | 92 | 2.53 | 3.71 | 90.5 | > 90 | –
24 | monoclonal antibody CBRLFA-1/1 | 55.5 | 118 | 43.6 | 95.9 | 93.3 | 86.1 | 89.4 | 94.7 | 2.85 | 9.03 | 92.5 | > 90 | % of wild-type binding [20]: 40 to 50%; % of binding to the wild-type I-domain [21]: 80%
